In patent US11155596B2, “Polypeptide” (AFFIBODY AB, priority 2016, dated 2021):

What was measured:
[1] = biological target: PD-L1 on PD-L1 expressing cells (IFNg-stimulated THP-1 cells; MDA-MB-231 cells) (Homo sapiens (Human)) (UniProt Q9NZQ7); assay: FACS, MDA-MB-231 cells, 1 µg/ml, positive control
[2] = biological target: human PD-L1 Fc Chimera (R&D Systems, cat. no. 156-B7-100) (human) (UniProt Q9NZQ7); assay: ELISA screen, 40 pM hPD-L1
[3] = biological target: PD-L1 on PD-L1 expressing cells (IFNg-stimulated THP-1 cells; MDA-MB-231 cells) (Homo sapiens (Human)) (UniProt Q9NZQ7); assay: FACS, MDA-MB-231 cells, 0.625 µg/ml; negative control (buffer) 69

Sequence of human PD-L1 Fc Chimera (R&D Systems, cat. no. 156-B7-100) (human) (Q9NZQ7 19-239, change not shown): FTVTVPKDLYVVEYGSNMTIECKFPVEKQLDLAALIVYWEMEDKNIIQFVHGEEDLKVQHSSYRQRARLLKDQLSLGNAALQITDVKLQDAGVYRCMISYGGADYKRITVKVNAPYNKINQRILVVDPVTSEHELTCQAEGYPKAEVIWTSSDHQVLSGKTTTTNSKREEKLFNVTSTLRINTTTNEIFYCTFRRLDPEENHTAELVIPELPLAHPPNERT

In the case of “mouse anti-PD-L1 antibody (R&D Systems, cat. no. MAB1561) (tool reagent)”, the MFI [1] is reported as 610.
“fusion protein ABD with no Z-fusion partner (periplasmic negative control) (from UniProt P19909)” showed an ELISA response (average) [2] of 0.051 AU.
“ipilimumab (Yervoy, Bristol-Myers Squibb, bought) (antibody)” showed an MFI [3] of 64.
